2 molecules from paper doi:10.1101/2020.02.25.965475 can be followed below.

Residue numbers refer to the chain shown, from its start.

Assay in all cases: EMSA
For series [1], the target named is T1, FLAG-TEN N338Y (Cucumis sativus (cucumber), UniProt A0A0A0KSL1 1-395, N338Y).
T1 sequence: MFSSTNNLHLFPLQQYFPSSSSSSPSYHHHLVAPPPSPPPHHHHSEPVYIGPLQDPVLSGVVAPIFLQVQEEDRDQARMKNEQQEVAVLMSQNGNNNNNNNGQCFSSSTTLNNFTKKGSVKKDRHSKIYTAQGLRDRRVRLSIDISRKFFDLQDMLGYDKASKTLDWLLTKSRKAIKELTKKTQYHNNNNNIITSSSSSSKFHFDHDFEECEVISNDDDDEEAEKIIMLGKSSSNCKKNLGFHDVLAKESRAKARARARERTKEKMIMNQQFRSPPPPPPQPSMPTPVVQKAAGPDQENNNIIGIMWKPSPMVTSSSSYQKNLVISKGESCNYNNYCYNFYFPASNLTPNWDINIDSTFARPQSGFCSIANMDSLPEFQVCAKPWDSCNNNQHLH

The target in series [2] is T2, FLAG-ΔN121 (TCP+R+C130) (Cucumis sativus (cucumber), UniProt A0A0A0KSL1 122-395, del1-121).
T2 sequence: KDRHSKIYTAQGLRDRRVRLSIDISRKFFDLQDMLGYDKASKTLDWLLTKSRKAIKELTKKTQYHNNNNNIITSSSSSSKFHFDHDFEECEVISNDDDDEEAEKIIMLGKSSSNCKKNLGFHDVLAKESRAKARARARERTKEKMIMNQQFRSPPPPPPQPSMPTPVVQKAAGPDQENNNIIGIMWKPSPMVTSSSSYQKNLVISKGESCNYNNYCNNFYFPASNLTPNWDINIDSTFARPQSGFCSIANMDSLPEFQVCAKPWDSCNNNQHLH

The target in series [3] is T3, MBP-C (Cucumis sativus (cucumber), UniProt A0A0A0KSL1 265-395).
T3 sequence: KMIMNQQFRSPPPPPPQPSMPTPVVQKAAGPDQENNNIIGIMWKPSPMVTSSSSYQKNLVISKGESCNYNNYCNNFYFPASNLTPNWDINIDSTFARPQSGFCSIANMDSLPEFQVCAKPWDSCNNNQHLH

Series [4] concerns the target T4, FLAG-TEN (Cucumis sativus (cucumber), UniProt A0A0A0KSL1 1-395).
T4 sequence: T1 sequence with Y338N

B1: GGTCCC probe (GTGGTCCCAC) (dsDNA)
DNA 1: AAATTAAGAATATTGTGGTCCCACTCAAATATAAAGTATTAATT
DNA 2: AATTAATACTTTATATTTGAGTGGGACCACAATATTCTTAATTT
B1: in series [1], the binding result was “binds”.

B2: CTCCGCC probe (dsDNA)
DNA 1: AAATTAAGAATATTTAACTCCGCCAATTCAAATATAAAGTATTAATT
DNA 2: AATTAATACTTTATATTTGAATTGGCGGAGTTAAATATTCTTAATTT
For the molecule B2, the binding result was “no binding” in series [1], “binds” in series [2], “no binding” in series [3] and “binds” in series [4].
